Assay: soluble on expression in E. coli; label from the status in PepcDB or PDB records

| Sequence | soluble on expression in E. coli |
| --- | --- |
| SLVNLKVNLLLVDYRGYGKSEGEASEEGLYLDSEAVLDYVMTRPDLDKTKIFLFGRSLGGAVAIHLASENSHRISAIMVENTFLSIPHMASTLFSFFPMRYLPLWCYKNKFLSYRKISQCRMPSLFISGLSDQLIPPVMMKQLYELSPSRTKRLAIFPDGTHNDTWQCQGYFTALEQFIKEVVKSHSPEEMAKTSSNVTII | soluble |
| SMKLKSNQTRTYDGDGYKKRAACLCFRNDTEQEVLLVSSSRHPDKWIVPGGGMEPEEEPNVAAAREVCEEAGVKGTLGRLVGIFENRDRKHRTYVYVLIVTEVLEDWEDSVNIGRKREWFKIDDAIQVLQCHKPVQASYFTALQEGCLNSNGTPLVATIGGGDLSPTYSINQSSVSDMR | soluble |
| SMSAPAGEPPAPVRLRKNVCYVVLAVFLSEQDEVLLIQEAKRECRGSWYLPAGRMEPGETIVEALQREVKEEAGLHCEPETLLSVEERGPSWVRFVFLARPTGGILKTSKEADAESLQAAWYPRTSLPTPLRAHDILHLVELAAQYRQQARHPLIL | soluble |
| SMSPEPDCQKQFQAAVSVIQNLPKNGSYRPSYEEMLRFYSYYKQATMGPCLVPRPGFWDPIGRYKWDAWNSLGKMSREEAMSAYITEMKLVAQKVIDTVPLGEVAE | soluble |
| SMVLLTMIARVADGLPLAASMQEDEQSGRDLQQYQSQAKQLFRKLNEQSPTRCTLEAGAMTFHYIIEQGVCYLVLCEAAFPKKLAFAYLEDLHSEFDEQHGKKVPTVSRPYSFIEFDTFIQKTKKLYIDSRARRNLGSINTELQDVQRIMVANIEEVLQRGEALSALDSKANNLSSLSKKYRQDAKYLNMRSTYAK | soluble |
| SNAGMTGFVINTRRAPFDDWRLREALLLAFNFEFINDTVTGGVMPRITSYFSGTDLAYRPGTASGREAELLAPFAADLPPGTLEGYALPQGDGTARNRTNLRRAAQFLEQAGFRIEQGQLLGPDGAPLALRFLLRQGDSDMQTVLEIYTRALERLGIAAQIEKVDNAQYTARVAELDFDLTPFRRDLSLSPGNEQRLYWGSHSAGQPGTRNLMGAASPAIDAMIDRMLAATTEDELTAATRALDRVLTAGRYVIPIWR | soluble |
| SNALFSSRDILEVLQDIHMETGETVAIATKNDIYLQYIQIIESVHALRFHVDENAIRPLTMSSNGWMLMSTMNDKAIDNTVRRANTITQKDGIRFEVDDMMARIRQVREQGYASAEHIPFVGGGTICVLLPMTIQGQPVTMGLGGALDRIKQNYDRYLELLLNGVQQLKKSDSFHQPI | soluble |
| SNAMAHEAQKAIARNSLLIRSLPEQHVDALLSQAVWRSYDRGETLFLQEEKAQAIHVVIDGWVKLFRMTPTGSEAVVSVFTRGESFGEAVALRNTPYPVSAEAVTPCEVMHIPSPVFVSLMRRDPEICISILATTFGHLHSLVAQLEQLKAQTGAQRVAEFLLELCDCDTGACEVTLPYDKMLIAGRLGMKPESLSRAFSRLKAAGVTVKRNHAEIEDIALLRDYAESDPADSWSES | soluble |
| SNAMDIVSVALQRYSTKAFDPSKKLTAEEADKIKTLLQYSPSSTNSQPWHFIVASTEEGKARVAKSAAGNYTFNERKMLDASHVVVFCAKTAMDDAWLERVVDQEDADGRFATPEAKAANDKGRRFFADMHRVSLKDDHQWMAKQVYLNVGNFLLGVAAMGLDAVPIEGFDAEVLDAEFGLKEKGYTSLVVVPVGHHSVEDFNAGLPKSRLPLETTLTEV | soluble |
| SNAMFKEAINNYLHTHGYESIDLKAVLFDMDGVLFDSMPNHAESWHKIMKRFGFGLSREEAYMHEGRTGASTINIVSRRERGHDATEEEIKAIYQAKTEEFNKCPKAERMPGALEVLTKIKSEGLTPMVVTGSGQTSLLDRLNHNFPGIFQANLMVTAFDVKYGKPNPEPYLMALKKGGFKPNEALVIENAPLGVQAGVAAGIFTIAVNTGPLHDNVLLNEGANLLFHSMPDFNKNWETLQSALKQD | soluble |
| SNAMKQLTILGSTGSIGNSTLSVVRANPELFKVTALVAGRNVREMAQQCLEFSPRYAAMSDEHSAKSLRLLLAEQGSDTEVYSGETAACELAALDDVDQVMAAIVGIAGLPSTLAAIRAGKQVLLANKESLITCGKLFMDEVKRSRAQLLPIDSEHNAIFQSLPERIQRQLGYSSLNENGVSRIILTGSGGPFRETPLSQFSDVTPDQACAHPNWSMGRKISVDSATMMNKGLEYIEARWLFNASAEQIEVVLHPQSVIHSMVRYHDGSILAQMGTPDMRTPIAHAMAYPMRVSSGVAPLDFCKVGALTFTTPDYQRYPCLKLAIDACNAGQAATTALNAANEISVMAFLDSKIRFTDIEVINRTVVEGLLLSEPTSVEEVLVIDRKARDVAAQVIAKLNN | soluble |
| SNAMVQAQTRDQIVAAADELFYRQGFAQTSFVDISAAVGISRGNFYYHFKTKDEILAEVIRLRLARTAQMLADWQGTGDSPRARIASFIDLMIMNRAKITRYGCPVGSLCTELSKLDHAAQGQANGLFTLFRDWLQRQFAEAGCTTEAPALAMHLLARSQGAATLAQSFHDEGFLRSEVADMHRWLDNTLPMTT | soluble |
| SNASVFDLFSIGIGPSSSHTVGPMLAANAFLQLLEQKNLFDKTQRVKVELYGSLALTGKGHGTDKAILNGLENKAPETVDPASMIPRMHEILDSNLLNLAGKKEIPFHEATDFLFLQKELLPKHSNGMRFSAFDGNANLLIEQVYYSIGGGFITTEEDFDK | soluble |
| SNATGLGELKISDTICAQNAVEALPALSVDEPTVTMTFQVNTSPFAGKEGKFVTSRNILERLEKELVHNVALRVEQTDDPDKFRVSGRGELHLSILIENMRREGFELAVSRPEVIIKEEDGQLMEPFETVTIDVMEEHQGGIMENIGLRKGELKDMAPDGKGRVRMDFIMPSRGLIGFQTEFMTLTSGSGLLYHTFDHYGPHKGGNIGQRVNGVLIANAAGKALTNALFNLQERGRLFIGHGVEVYEGMVIGIHSRDNDLTVNALKGKQLTNVRASGTDDAQVLTPPIVMTLEQALEFIDDDELVEVTPESIRIRKKFLTESDRKRASRSAK | soluble |
| SNAVRQVEEYIEANWMRPITIEKLTALTGISSRGIFKAFQRSRGYSPMAFAKRVRLQHAHNLLSDGATPTTVTAAALSCGFSNLGHFARDYRDMFGEKPSETLQRARP | soluble |
| SNKGGGSGGGSGGGSGPTAAAAAAALQKQKALLQRVETDITSVVDNFTQIVNVSRVSDPPVKNSQETYMMEMRASRMATQVLLKDFLMSLWSVVNLLPHQWWQVQAADSLLKLVSELKQTAIFSGFASLNDHVEQRIEEFDQEAEKTNRLLARIADDASANLKELESHYYSSAQRLTLDI | soluble |
| SNLLYKRWVERCRNIVDKLSEDRIGYVHVKGMDSQSFREVYSEVLGRCRNKEAIIVDTRHNGGGWLHDDLATLLSGKEYQRFVPRGQYIGSDPFNKWLKPSCVLVCEDNYSNAHGFPWVYKELKIGKLIGAPVPGTMTAVWWENQIDPSIVFGIPQVGCMDMRGQYAENHQLSPDIEVYNTPEKALAGEDQQLEAAVQEMLKTIGEKK | not soluble |
| SPDEQLLKQVSELLQQGEHAQALNVIQTLSDELQSRGDVKLAKADCLLETKQFELAQELLATIPLEYQDNSYKSLIAKLELHQQAAESPELKRLEQELAANPDNFELACELAVQYNQVGRDEEALELLWNILKVNLGAQDGEVKKTFMDILSALGQGNAIASKYRRQLYSILY | soluble |
| SPEAQTEIEESILEEYAIWRKNTPFLYDLVVTKPLEWPSLTCQWLPEKREFPNSDYYLEKIILGTQTDGNAQNYLMLAQVRLPNEKAEVDGSAYNNKENGSYGGFGMGQQGKIDIVQRIKHDGDVNRARYMPQNPQIIATKTVSGEVHIFDISKHPLKPPANNVASPQLRLRSPQKEGFGLCWNPNQEGRIISAGEDRRIFLWDILGGGDKEEYVNPLNVYGGHTDVVGDVSFHAHSQYLFGSVGDDRKIMLWDTRSSDVEHPSQEVEAHKDVINCLAFNPFSEHVLITGSADTTLCLWDLRSLNQPLHVFESHPGEILQALWSPFHETLFASCGKDRQVRIWDLSRIGEEQEPEDAEDGPPELLFVHGGHTSTVQELSWNPNEPFVIASVADDNILQLWSMAQHIYEDTDDESMTTELKEEDLE | soluble |
